What was measured:
[1] = molecular target: T1, human αVβ6 integrin on cells (human, UniProt P06756 31-1048; P18564 22-788); test: cell-based or functional assay
[2] = molecular target: T1, human αVβ6 integrin on cells; test: cell-based or functional assay; remark: listed apart in the source
[3] = molecular target: human αV on parental A375M cells (αVβ3 and αVβ5 integrins) (human, UniProt P06756 31-1048); test: cell-based or functional assay
[4] = molecular target: T1, human αVβ6 integrin on cells; test: cell-based or functional assay; remark: listed apart in the source
[5] = molecular target: T2, mouse αV on transfected HEK-293 cells (mouse, UniProt P43406 31-1044); test: FACS, purified mAb, transfected HEK-293 (parental: 49)
T2 construct: whole, on cells; Transfected alone into human HEK-293 cells; also called Mouse alpha V
T2 sequence (P43406 31-1044): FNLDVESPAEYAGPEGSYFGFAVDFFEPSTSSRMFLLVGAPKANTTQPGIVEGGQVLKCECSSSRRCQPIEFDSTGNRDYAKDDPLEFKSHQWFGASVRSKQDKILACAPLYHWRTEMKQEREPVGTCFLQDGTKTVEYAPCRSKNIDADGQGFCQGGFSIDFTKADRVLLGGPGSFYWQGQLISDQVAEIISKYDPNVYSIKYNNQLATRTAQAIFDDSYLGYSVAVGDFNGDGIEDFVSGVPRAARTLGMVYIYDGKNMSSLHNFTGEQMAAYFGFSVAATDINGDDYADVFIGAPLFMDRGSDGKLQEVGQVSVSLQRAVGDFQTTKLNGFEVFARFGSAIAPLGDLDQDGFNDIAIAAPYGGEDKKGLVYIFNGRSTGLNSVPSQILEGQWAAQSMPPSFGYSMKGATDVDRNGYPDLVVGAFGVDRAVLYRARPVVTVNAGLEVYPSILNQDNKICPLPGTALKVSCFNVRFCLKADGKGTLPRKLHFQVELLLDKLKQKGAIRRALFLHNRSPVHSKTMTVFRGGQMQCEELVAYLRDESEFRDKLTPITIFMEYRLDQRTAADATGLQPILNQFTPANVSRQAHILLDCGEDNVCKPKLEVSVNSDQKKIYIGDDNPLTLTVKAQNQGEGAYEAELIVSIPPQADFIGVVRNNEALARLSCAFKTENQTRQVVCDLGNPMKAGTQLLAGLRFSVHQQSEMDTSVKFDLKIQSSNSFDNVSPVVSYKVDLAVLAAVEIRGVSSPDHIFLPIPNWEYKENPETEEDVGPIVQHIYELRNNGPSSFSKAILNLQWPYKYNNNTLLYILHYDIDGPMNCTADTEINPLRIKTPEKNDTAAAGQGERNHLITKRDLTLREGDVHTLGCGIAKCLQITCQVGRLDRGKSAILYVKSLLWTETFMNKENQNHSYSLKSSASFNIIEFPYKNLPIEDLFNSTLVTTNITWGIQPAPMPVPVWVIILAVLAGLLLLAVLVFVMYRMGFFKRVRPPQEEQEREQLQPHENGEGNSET

[6] = molecular target: T1, human αVβ6 integrin on cells; test: FMAT, supernatant, HEK 293 cells stably overexpressing αVβ6
[7] = molecular target: α5β1 integrin on K562 cells (UniProt P08648 42-1049; P05556 21-798); test: cell-based or functional assay
α5β1 integrin on K562 cells, sequence (P08648 42-1049, chain 1 of 2): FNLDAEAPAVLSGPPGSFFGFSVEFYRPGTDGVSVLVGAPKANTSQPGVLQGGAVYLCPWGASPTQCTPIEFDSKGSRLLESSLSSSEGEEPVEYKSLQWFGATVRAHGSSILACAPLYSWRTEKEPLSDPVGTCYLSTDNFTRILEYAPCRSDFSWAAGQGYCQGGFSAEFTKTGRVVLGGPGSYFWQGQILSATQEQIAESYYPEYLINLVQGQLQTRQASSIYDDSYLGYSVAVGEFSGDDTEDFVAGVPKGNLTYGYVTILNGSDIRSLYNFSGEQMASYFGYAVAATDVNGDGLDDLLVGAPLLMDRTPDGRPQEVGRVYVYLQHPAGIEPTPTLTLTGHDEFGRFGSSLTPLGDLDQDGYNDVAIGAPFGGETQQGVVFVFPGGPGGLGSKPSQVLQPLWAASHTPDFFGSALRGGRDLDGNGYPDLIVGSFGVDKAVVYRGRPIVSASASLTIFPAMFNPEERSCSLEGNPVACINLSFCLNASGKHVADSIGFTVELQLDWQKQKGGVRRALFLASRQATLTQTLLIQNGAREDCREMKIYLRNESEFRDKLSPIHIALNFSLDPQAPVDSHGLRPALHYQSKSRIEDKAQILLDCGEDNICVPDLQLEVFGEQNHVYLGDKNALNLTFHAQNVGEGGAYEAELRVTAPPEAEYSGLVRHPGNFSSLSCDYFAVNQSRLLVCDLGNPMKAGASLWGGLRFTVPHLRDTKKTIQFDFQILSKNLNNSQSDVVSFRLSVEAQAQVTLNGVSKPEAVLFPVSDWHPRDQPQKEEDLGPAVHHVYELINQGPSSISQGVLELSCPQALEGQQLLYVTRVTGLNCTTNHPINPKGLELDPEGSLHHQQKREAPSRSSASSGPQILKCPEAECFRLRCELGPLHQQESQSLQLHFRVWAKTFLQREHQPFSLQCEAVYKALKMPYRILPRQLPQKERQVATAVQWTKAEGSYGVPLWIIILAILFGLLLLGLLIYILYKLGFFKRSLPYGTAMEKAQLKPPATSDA
α5β1 integrin on K562 cells, sequence (P05556 21-798, chain 2 of 2): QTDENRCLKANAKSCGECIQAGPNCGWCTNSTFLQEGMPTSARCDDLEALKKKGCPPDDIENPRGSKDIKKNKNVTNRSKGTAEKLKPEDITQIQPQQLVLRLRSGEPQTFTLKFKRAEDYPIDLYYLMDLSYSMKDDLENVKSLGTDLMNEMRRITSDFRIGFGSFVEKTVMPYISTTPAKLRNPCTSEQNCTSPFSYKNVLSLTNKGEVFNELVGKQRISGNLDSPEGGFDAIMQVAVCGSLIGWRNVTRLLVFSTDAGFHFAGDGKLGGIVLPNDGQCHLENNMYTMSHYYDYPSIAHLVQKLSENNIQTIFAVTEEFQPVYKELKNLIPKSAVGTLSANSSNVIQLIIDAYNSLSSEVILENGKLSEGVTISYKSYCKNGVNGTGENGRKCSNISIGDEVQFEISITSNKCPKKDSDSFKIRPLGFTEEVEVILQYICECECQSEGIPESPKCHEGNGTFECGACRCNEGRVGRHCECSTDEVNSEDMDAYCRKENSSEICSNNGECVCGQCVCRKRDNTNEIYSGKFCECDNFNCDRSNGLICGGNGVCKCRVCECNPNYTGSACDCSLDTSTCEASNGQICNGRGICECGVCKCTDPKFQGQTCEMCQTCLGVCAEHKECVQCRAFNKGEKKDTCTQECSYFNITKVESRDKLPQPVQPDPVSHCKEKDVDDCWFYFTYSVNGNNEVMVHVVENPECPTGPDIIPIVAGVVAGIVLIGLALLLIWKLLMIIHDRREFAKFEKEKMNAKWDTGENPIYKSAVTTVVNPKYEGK

[8] = molecular target: α4β1 integrin on J6.77 cells (UniProt P13612 34-1032; P05556 21-798); test: cell-based or functional assay

T1 sequence (P06756 31-1048, chain 1 of 2): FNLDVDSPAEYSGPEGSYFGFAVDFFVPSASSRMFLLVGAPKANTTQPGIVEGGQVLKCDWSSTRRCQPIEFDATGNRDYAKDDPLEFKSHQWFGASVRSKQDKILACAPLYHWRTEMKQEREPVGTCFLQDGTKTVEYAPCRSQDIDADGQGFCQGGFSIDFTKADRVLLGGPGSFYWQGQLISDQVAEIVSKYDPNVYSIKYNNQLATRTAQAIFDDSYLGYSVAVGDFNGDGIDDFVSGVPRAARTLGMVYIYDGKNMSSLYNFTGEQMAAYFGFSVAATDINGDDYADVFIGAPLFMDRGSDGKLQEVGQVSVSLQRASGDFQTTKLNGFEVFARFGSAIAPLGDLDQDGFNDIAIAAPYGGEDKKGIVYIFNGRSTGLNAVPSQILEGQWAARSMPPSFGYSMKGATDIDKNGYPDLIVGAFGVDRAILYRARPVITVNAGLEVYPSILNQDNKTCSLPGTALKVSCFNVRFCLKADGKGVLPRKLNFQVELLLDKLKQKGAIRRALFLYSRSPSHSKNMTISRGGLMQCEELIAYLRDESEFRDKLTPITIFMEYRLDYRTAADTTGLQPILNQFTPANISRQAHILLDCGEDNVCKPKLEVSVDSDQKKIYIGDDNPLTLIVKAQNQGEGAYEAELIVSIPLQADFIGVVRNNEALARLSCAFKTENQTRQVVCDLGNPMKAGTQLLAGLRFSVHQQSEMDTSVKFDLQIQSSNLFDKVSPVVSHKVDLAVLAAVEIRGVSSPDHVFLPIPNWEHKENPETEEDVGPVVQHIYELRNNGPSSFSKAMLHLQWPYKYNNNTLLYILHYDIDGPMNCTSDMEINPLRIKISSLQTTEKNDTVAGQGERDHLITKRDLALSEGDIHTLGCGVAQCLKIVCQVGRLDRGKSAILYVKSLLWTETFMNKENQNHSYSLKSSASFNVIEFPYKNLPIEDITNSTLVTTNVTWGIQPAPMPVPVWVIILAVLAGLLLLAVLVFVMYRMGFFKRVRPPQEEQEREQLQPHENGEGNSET
T1 sequence (P18564 22-788, chain 2 of 2): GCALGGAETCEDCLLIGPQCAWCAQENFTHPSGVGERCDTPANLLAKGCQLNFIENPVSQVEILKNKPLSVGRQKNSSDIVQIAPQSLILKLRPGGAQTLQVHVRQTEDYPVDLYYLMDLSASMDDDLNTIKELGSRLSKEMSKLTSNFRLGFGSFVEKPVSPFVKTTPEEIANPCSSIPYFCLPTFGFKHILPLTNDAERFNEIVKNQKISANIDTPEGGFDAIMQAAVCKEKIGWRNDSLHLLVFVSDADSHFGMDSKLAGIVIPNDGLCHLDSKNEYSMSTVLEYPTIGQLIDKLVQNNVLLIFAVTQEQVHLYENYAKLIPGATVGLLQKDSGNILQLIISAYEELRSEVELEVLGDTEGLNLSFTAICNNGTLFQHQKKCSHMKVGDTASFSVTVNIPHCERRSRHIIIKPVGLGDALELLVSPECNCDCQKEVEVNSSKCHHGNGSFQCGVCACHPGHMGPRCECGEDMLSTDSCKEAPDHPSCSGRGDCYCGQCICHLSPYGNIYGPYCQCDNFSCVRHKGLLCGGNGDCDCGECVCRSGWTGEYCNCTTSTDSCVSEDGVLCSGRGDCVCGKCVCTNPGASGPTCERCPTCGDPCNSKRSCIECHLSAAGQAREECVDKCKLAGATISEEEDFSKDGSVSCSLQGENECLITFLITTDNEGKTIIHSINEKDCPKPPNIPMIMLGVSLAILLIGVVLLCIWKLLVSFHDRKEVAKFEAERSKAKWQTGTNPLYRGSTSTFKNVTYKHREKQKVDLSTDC
human αV on parental A375M cells (αVβ3 and αVβ5 integrins), sequence (P06756 31-1048 A375M, form in doubt): as the sequence (P06756 31-1048, chain 1 of 2) above, with A345M counted along it

B1: sc 298 (antibody, V domains shown)
VH: QVQLVESGGGVVQPGRSLRLSCAASGFTFSSYGMHWVRQAPGKGLEWVAVIWYGGSNKYYADSVKGRFTISRDNSKNTLYLQMNSLRAEDTAVYYCARDLAARRGDYYYYGMDVWGQGTTVTVSS
VL: SSELTQDPVVSVALGQTVRITCQGDSLRSYYLSWYQQKPGQAPVLVIYGKNNRPSGIPDRFSGSNSGNTASLTITGAQAEDEADYYCNSRDSSGNHLFGGGTKLTVL
notes: lambda light chain
With B1 the “Percent Internalization, 1 ug/mL” value [1] was 26%, the “Percent Internalization, 10 ug/mL” value [1] was 28% and the “Assay 1 % Inhibition of adhesion” value [2] was 98%. The “Assay 2 % Inhibition of adhesion” value [2] was 102%, the “Average % Inhibition of adhesion” value [2] was 100% and the “Percent Inhibition of A375M adhesion to osteopontin peptide, 5 ug/ml” value [3] was 9%. For the same binder, the “Estimated IC50, adhesion assay, n = 1” value [4] was 0.029 µg/mL, the “Estimated IC50, adhesion assay, n = 2” value [4] was 0.025 µg/mL and the “Estimated IC50, adhesion assay, n = 3” value [4] was 0.033 µg/mL. The “percent of cells shifted” value [5] was 45%, the “FMAT FL1XCount” value [6] was 218000 and the “Percent Inhibition of K562 adhesion to FN9-10, 5 ug/ml” value [7] was 2%. For the same binder, the “Percent Inhibition of J6.77 adhesion to CS-1 peptide, 5 ug/ml” value [8] was -7%.

Source: patent publication US20160319032A1 (MEDLMMUNE, published 2016)
